Reference: PMC6768434

B1: MnmC (Escherichia coli K-12) (protein)
chain: MKHYSIQPANLEFNAEGTPVSRDFDDVYFSNDNGLEETRYVFLGGNQLEVRFPEHPHPLFVVAESGFGTGLNFLTLWQAFDQFREAHPQAQLQRLHFISFEKFPLTRADLALAHQHWPELAPWAEQLQAQWPMPLPGCHRLLLDEGRVTLDLWFGDINELTSQLDDSLNQKVDAWFLDGFAPAKNPDMWTQNLFNAMARLARPGGTLATFTSAGFVRRGLQDAGFTMQKRKGFGRKREMLCGVMEQTLPLPCSAPWFNRTGSSKREAAIIGGGIASALLSLALLRRGWQVTLYCADEAPALGASGNRQGALYPLLSKHDEALNRFFSNAFTFARRFYDQLPVKFDHDWCGVTQLGWDEKSQHKIAQMLSMDLPAELAVAVEANAVEQITGVATNCSGITYPQGGWLCPAELTRNVLELAQQQGLQIYYQYQLQNLSRKDDCWLLNFAGDQQATHSVVVLANGHQISRFSQTSTLPVYSVAGQVSHIPTTPELAELKQVLCYDGYLTPQNPANQHHCIGASYHRGSEDTAYSEDDQQQNRQRLIDCFPQAQWAKEVDVSDKEARCGVRCATRDHLPMVGNVPDYEATLVEYASLAEQKDEAVSAPVFDDLFMFAALGSRGLCSAPLCAEILAAQMSDEPIPMDASTLAALNPNRLWVRKLLKGKAVKAG
B2: C-MnmC (Escherichia coli K-12) (protein)
chain: PCSAPWFNRTGSSKREAAIIGGGIASALLSLALLRRGWQVTLYCADEAPALGASGNRQGALYPLLSKHDEALNRFFSNAFTFARRFYDQLPVKFDHDWCGVTQLGWDEKSQHKIAQMLSMDLPAELAVAVEANAVEQITGVATNCSGITYPQGGWLCPAELTRNVLELAQQQGLQIYYQYQLQNLSRKDDCWLLNFAGDQQATHSVVVLANGHQISRFSQTSTLPVYSVAGQVSHIPTTPELAELKQVLCYDGYLTPQNPANQHHCIGASYHRGSEDTAYSEDDQQQNRQRLIDCFPQAQWAKEVDVSDKEARCGVRCATRDHLPMVGNVPDYEATLVEYASLAEQKDEAVSAPVFDDLFMFAALGSRGLCSAPLCAEILAAQMSDEPIPMDASTLAALNPNRLWVRKLLKGKAVKAG

Substrate: CC(NCCCC[C@H](N)C(=O)O)C(=O)O
Assay: purified protein
Details: 50 mM Tris pH 8.0, 5 μM FAD, 25 μM enzyme, 37 °C, CEL 1-13 mM

Protein | Km [mM] | kcat [s⁻¹] | kcat/Km [M⁻¹ s⁻¹]
B1 | 5.2 ± 1.3 | 0.000667 ± 6.67e-05 | 0.133 ± 0.0167
B2 | 4.3 ± 0.6 | 0.003 ± 0.00015 | 0.7 ± 0.1
